# Laboratory results: the Human Domainome abundance scans (Beltran et al. 2025)
# ± gives the uncertainty stated by the source.
# B1: Transitional endoplasmic reticulum ATPase, residues 26 to 106; numbered along this chain, P55072 (parent)
# chain: LIVDEAINEDNSVVSLSQPKMDELQLFRGDTVLLKGKKRREAVCIVLSDDTCSDEKIRMNRVVRNNLRVRLGDVISIQPCP
# Variants of: B1
# Experiment: abundance fitness (aPCA) (normalised: wild type 0, dead -1); higher = more abundant; growth selection in yeast, the domain comes from the species named
# Details: Homo sapiens
row,Variant,abundance fitness
1,S76R,-0.046 ± 0.044
2,S76Q,0.057 ± 0.11
3,S76V,0.023 ± 0.064
4,S76C,-0.015 ± 0.096
5,S76T,-0.146 ± 0.091
6,S76G,-0.021 ± 0.043
7,S76P,-0.467 ± 0.16
8,S76M,-0.012 ± 0.087
9,S76H,0 ± 0.17
10,S76W,-0.207 ± 0.082
11,S76E,-0.096 ± 0.088
12,S76L,-0.112 ± 0.06
13,S76Y,-0.107 ± 0.12
14,S76I,-0.173 ± 0.13
15,S76F,-0.043 ± 0.11
16,S76A,-0.036 ± 0.073
17,C80K,-0.505 ± 0.49
18,C80H,-0.064 ± 0.14
19,C80N,0.141 ± 0.089
20,C80E,-0.095 ± 0.17
21,C80G,0.056 ± 0.039
22,C80R,-0.066 ± 0.071
23,C80P,-0.048 ± 0.3
24,C80V,-0.06 ± 0.045
25,C80Q,0.104 ± 0.3
26,C80I,0.047 ± 0.079
27,C80Y,-0.109 ± 0.059

row,Variant,abundance fitness
1,C80W,-0.29 ± 0.11
2,C80L,0.022 ± 0.073
3,C80F,-0.067 ± 0.054
4,C80M,0.055 ± 0.2
5,C80T,-0.038 ± 0.091
6,C80D,-0.064 ± 0.072
7,I77F,-0.259 ± 0.11
8,I77S,-0.914 ± 0.19
9,I77K,-1.01 ± 0.38
10,I77A,-0.309 ± 0.075
11,I77M,-0.097 ± 0.078
12,I77T,-0.672 ± 0.17
13,I77C,-0.074 ± 0.2
14,I77R,-0.91 ± 0.12
15,I77G,-0.817 ± 0.093
16,I77H,-0.842 ± 0.47
17,I77W,-0.856 ± 0.27
18,I77E,-0.85 ± 0.22
19,I77L,0.013 ± 0.057
20,V74A,0.031 ± 0.077
21,V74F,0.042 ± 0.078
22,V74P,0.009 ± 0.095
23,V74N,0.034 ± 0.2
24,V74E,0.051 ± 0.11
25,V74I,-0.115 ± 0.091
26,V74Y,-0.052 ± 0.11
27,V74L,-0.117 ± 0.064

row,Variant,abundance fitness
1,V74R,0.036 ± 0.062
2,V74W,-0.087 ± 0.091
3,V74G,-0.085 ± 0.052
4,V74D,-0.022 ± 0.091
5,V74C,-0.039 ± 0.08
6,V74M,-0.107 ± 0.093
7,V74K,0.008 ± 0.13
8,V74S,-0.048 ± 0.064
9,V74Q,0.037 ± 0.095
10,R70W,-0.127 ± 0.072
11,R70Y,0.005 ± 0.15
12,Q78R,-0.071 ± 0.057
13,Q78I,-0.023 ± 0.12
14,Q78N,0.063 ± 0.48
15,Q78H,-0.025 ± 0.12
16,Q78F,-0.345 ± 0.12
17,Q78P,-0.256 ± 0.24
18,Q78V,0.039 ± 0.064
19,Q78E,-0.004 ± 0.13
20,Q78T,-0.003 ± 0.077
21,Q78L,-0.01 ± 0.06
22,Q78G,-0.069 ± 0.048
23,Q78Y,0.024 ± 0.33
24,Q78C,-0.105 ± 0.089
25,Q78D,0.084 ± 0.087
26,Q78M,-0.089 ± 0.077
27,Q78S,-0.031 ± 0.078

row,Variant,abundance fitness
1,P79S,-0.016 ± 0.069
2,P79D,-0.383 ± 0.15
3,P79H,-0.037 ± 0.11
4,P79A,0.015 ± 0.063
5,P79W,-0.304 ± 0.093
6,P79F,-0.012 ± 0.088
7,P79R,-0.106 ± 0.062
8,P79L,-0.044 ± 0.035
9,P79K,0.113 ± 0.12
10,P79C,-0.099 ± 0.096
11,P79T,-0.11 ± 0.088
12,P79E,-0.087 ± 0.082
13,P79I,-0.181 ± 0.14
14,P79G,-0.083 ± 0.06
15,P79Y,-0.208 ± 0.12
16,P79M,-0.076 ± 0.11
17,G72A,-0.271 ± 0.061
18,G72R,-0.177 ± 0.051
19,G72E,-0.23 ± 0.088
20,G72N,-0.043 ± 0.28
21,G72D,-0.187 ± 0.15
22,G72L,-0.42 ± 0.072
23,G72K,-0.317 ± 0.097
24,G72P,-0.891 ± 0.21
